Assay results published in paper PMC12416549 (2024).
Numbering of substitutions follows the chain as printed. Names and notes keep the numbering of the source.

T1: TNFR1 (Homo sapiens, UniProt P19438)
T1 chain: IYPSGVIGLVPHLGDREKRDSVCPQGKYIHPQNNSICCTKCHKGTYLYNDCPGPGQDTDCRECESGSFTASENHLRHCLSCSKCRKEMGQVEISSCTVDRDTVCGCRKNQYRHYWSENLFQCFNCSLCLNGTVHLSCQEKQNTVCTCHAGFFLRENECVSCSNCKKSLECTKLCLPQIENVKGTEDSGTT

B1: E34G (designed binder)
chain: SMEEEVEKAAKEYEKKKKEAIEKHLEKLKAKDKGAAERFLKELEEAAKEYAKDEAKTMSEEEAKRRAKKYKEKVLLSELSEEEQKEIKEAEEKLVRTILKYVEEAAK
B2: K31L (designed binder)
chain: B1 chain with K31L, G34E
B3: V6S (designed binder)
chain: B1 chain with V6S, G34E
B4: K16V (designed binder)
chain: B1 chain with K16V, G34E
B5: E82P (designed binder)
chain: B1 chain with G34E, E82P
B6: A30F (designed binder)
chain: B1 chain with A30F, G34E
B7: K41E (designed binder)
chain: B1 chain with G34E, K41E
B8: E83N (designed binder)
chain: B1 chain with G34E, E83N
B9: A63R (designed binder)
chain: B1 chain with G34E, A63R
B10: A51C (designed binder)
chain: B1 chain with G34E, A51C
B11: E104S (designed binder)
chain: B1 chain with G34E, E104S
B12: Y101P (designed binder)
chain: B1 chain with G34E, Y101P
B13: K8I (designed binder)
chain: B1 chain with K8I, G34E
B14: A63G (designed binder)
chain: B1 chain with G34E, A63G
B15: K15T (designed binder)
chain: B1 chain with K15T, G34E
B16: K56G (designed binder)
chain: B1 chain with G34E, K56G
B17: E81F (designed binder)
chain: B1 chain with G34E, E81F
B18: V74K (designed binder)
chain: B1 chain with G34E, V74K
B19: E82R (designed binder)
chain: B1 chain with G34E, E82R
B20: A90Y (designed binder)
chain: B1 chain with G34E, A90Y
B21: R96C (designed binder)
chain: B1 chain with G34E, R96C
B22: Y13H (designed binder)
chain: B1 chain with Y13H, G34E
B23: E45D (designed binder)
chain: B1 chain with G34E, E45D
B24: I98C (designed binder)
chain: B1 chain with G34E, I98C
B25: L25A (designed binder)
chain: B1 chain with L25A, G34E
B26: I98G (designed binder)
chain: B1 chain with G34E, I98G
B27: K31C (designed binder)
chain: B1 chain with K31C, G34E
B28: L94I (designed binder)
chain: B1 chain with G34E, L94I
B29: K107M (designed binder)
chain: B1 chain with G34E, K107M
B30: F39H (designed binder)
chain: B1 chain with G34E, F39H
B31: E49M (designed binder)
chain: B1 chain with G34E, E49M
B32: K15L (designed binder)
chain: B1 chain with K15L, G34E
B33: E22K (designed binder)
chain: B1 chain with E22K, G34E
B34: K73G (designed binder)
chain: B1 chain with G34E, K73G
B35: K33M (designed binder)
chain: B1 chain with K33M, G34E
B36: Y70G (designed binder)
chain: B1 chain with G34E, Y70G
B37: H24F (designed binder)
chain: B1 chain with H24F, G34E
B38: E91P (designed binder)
chain: B1 chain with G34E, E91P
B39: K8V (designed binder)
chain: B1 chain with K8V, G34E
B40: H24M (designed binder)
chain: B1 chain with H24M, G34E
B41: K93R (designed binder)
chain: B1 chain with G34E, K93R
B42: D53S (designed binder)
chain: B1 chain with G34E, D53S
B43: K73E (designed binder)
chain: B1 chain with G34E, K73E

Target: T1, TNFR1
Assay: yeast display SC50

Binder | apparent Kd (screen)
B1 | 0.405 nM
B2 | 0.49 nM
B3 | 1.4 nM
B4 | 1.05 nM
B5 | 1.16 nM
B6 | 0.869 nM
B7 | 0.49 nM
B8 | 0.79 nM
B9 | 6.43 nM
B10 | 0.446 nM
B11 | 0.718 nM
B12 | 0.405 nM
B13 | 1.05 nM
B14 | 11.4 nM
B15 | 0.653 nM
B16 | 7.07 nM
B17 | 0.593 nM
B18 | 6.43 nM
B19 | 0.405 nM
B20 | 0.49 nM
B21 | 2.48 nM
B22 | 0.446 nM

Binder | apparent Kd (screen)
B23 | 0.539 nM
B24 | 6.43 nM
B25 | 0.593 nM
B26 | 6.43 nM
B27 | 1.27 nM
B28 | 0.405 nM
B29 | 1.4 nM
B30 | 4.39 nM
B31 | 12.5 nM
B32 | 0.49 nM
B33 | 1.05 nM
B34 | 22.2 nM
B35 | 0.593 nM
B36 | 3.99 nM
B37 | 0.956 nM
B38 | 1.54 nM
B39 | 1.16 nM
B40 | 0.49 nM
B41 | 0.593 nM
B42 | 0.446 nM
B43 | 11.4 nM
